B1: 697D (antibody, V domains shown)
VH: QVQLVQSGAEVKKPGSSVKVSCKASGGNFNTYTISWVRQAPGQGLEWMGRIIPIFGIVNPAQKFPGRVTINVDKSTNTAYMELSSLRSEDTAVYYCATSGVGLHFGYFDYWGQGTQVTVSS
VL: QSVLTQPPSVSGAPGQRVTISCTGSSSNIGAHYDVHWYQQLPGTAPKLLIYGNSNRPSGVPDRFSGSKSGTSASLAITGLQAEDEADYYCQSYDSSLSGYVFGTGTKVTVL
B2: CH59 (antibody, V domains shown)
VH: EVQLVESGGGLVQPGRSLRLSCAASGFTFDDGAMHWVRQAPGKGLEWVSGISWNSNIIAYADSVKGRFTISRDNAKNSLYLEMNSLRVEDTALYYCAKDSPRGELPLNYWGQGTLVTVSS
VL: SYELTQPPSVSVSPGQTARITCSGDALPKNYAYWYQQKSGQAPVLVIYEDSKRPSGIPERFSGSSSGTMATLTISGAQVEDEADYYCYSTDSSGNHRVFGGGTKLTVL

Experiments:
[1] = biological target: 92TH023 V2 cyclic peptide (HIV-1); experiment: RPMI 8866 cell adhesion to coated peptide, mAb 10 ug/ml
[2] = biological target: 92TH023 V2 cyclic peptide (HIV-1); experiment: RPMI 8866 cell adhesion to coated peptide, mAb 20 ug/ml
[3] = biological target: V2 aa 168-182 peptide (HIV-1); experiment: ELISA on V2 peptide (FIG. 55A)
[4] = biological target: 92TH023 V2 cyclic peptide (HIV-1); experiment: RPMI 8866 cell adhesion to coated peptide, mAb 5 ug/ml

Row | Binder | % inhibition [1] [%] | % inhibition [2] [%] | EC50 [3] [ng/mL] | % inhibition [4] [%]
1 | B1 | -13.1 | – | – | –
2 | B2 | 36.7 | 44.8 | 3 | 19.4

Reference: patent US9988424
